Experimental data taken from patent US20110044995A1.

Key:
Assay in all cases: cell-based or functional assay
[1] = target: envelope of HIV-1 strain JR-FL (JRFLwt), on virus (HIV-1 strain JR-FL)
[2] = target: envelope of HIV-2 strain EHO (HIV-2 strain EHO)
[3] = target: envelope of standard panel pseudotyped virus SVPB12 (HIV-1 subtype B)
[4] = target: envelope of HIV-2 strain ROD (HIV-2 strain ROD) (UniProt P04577)
[5] = target: envelope of HIV-1 strain YU2 (HIV-1 strain YU2) (UniProt P35961)
[6] = target: envelope of standard panel pseudotyped virus SVPB8 (HIV-1 subtype B)
[7] = target: envelope of standard panel pseudotyped virus SVPB14 (HIV-1 subtype B)
[8] = target: envelope of standard panel pseudotyped virus SVPB6 (HIV-1 subtype B)
[9] = target: envelope of standard panel pseudotyped virus SVPB5 (HIV-1 subtype B)
[10] = target: envelope of standard panel pseudotyped virus SVPB15 (HIV-1 subtype B)
[11] = target: envelope of HIV-1 strain JRFLGPER
[12] = target: envelope of standard panel pseudotyped virus SVPB11 (HIV-1 subtype B)
[13] = target: envelope of standard panel pseudotyped virus SVPB17 (HIV-1 subtype B)
[14] = target: envelope of standard panel pseudotyped virus SVPB13 (HIV-1 subtype B)
[15] = target: envelope of HIV-1 strain BaL (HIV-1 strain BaL)
[16] = target: envelope of HIV-1 strain IIIB (HIV-1 strain IIIB)
[17] = target: envelope of standard panel pseudotyped virus SVPB18 (HIV-1 subtype B)
[18] = target: envelope of HIV-1 strain 89.6 (HIV-1 strain 89.6) (UniProt Q73372)
[19] = target: envelope of standard panel pseudotyped virus SVPB16 (HIV-1 subtype B)
[20] = target: envelope of HIV-1 strain SF162 (HIV-1 strain SF162) (UniProt P19550)

envelope of HIV-1 strain YU2 (HIV-1 strain YU2), sequence (P35961 32-843): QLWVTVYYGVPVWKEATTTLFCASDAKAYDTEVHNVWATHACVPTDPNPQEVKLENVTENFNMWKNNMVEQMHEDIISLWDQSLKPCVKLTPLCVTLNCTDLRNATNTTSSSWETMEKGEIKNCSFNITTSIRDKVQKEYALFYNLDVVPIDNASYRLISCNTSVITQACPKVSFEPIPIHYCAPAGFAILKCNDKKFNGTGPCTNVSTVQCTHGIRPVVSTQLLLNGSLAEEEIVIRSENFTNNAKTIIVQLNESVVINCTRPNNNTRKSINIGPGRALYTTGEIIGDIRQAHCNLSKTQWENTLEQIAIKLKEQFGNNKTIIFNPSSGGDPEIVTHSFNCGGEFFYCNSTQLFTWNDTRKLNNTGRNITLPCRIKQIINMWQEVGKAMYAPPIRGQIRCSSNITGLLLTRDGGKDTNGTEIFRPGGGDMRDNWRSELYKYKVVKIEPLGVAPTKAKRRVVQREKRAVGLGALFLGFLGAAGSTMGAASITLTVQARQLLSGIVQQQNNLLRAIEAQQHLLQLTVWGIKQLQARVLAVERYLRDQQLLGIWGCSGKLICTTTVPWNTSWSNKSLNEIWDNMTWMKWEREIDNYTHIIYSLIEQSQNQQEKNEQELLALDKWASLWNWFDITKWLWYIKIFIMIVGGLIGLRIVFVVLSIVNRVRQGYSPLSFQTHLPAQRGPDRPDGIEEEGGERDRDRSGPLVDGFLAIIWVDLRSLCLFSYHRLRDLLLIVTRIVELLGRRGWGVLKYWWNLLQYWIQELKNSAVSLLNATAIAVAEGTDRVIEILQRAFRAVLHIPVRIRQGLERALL
envelope of HIV-2 strain ROD (HIV-2 strain ROD), sequence (P04577 20-858): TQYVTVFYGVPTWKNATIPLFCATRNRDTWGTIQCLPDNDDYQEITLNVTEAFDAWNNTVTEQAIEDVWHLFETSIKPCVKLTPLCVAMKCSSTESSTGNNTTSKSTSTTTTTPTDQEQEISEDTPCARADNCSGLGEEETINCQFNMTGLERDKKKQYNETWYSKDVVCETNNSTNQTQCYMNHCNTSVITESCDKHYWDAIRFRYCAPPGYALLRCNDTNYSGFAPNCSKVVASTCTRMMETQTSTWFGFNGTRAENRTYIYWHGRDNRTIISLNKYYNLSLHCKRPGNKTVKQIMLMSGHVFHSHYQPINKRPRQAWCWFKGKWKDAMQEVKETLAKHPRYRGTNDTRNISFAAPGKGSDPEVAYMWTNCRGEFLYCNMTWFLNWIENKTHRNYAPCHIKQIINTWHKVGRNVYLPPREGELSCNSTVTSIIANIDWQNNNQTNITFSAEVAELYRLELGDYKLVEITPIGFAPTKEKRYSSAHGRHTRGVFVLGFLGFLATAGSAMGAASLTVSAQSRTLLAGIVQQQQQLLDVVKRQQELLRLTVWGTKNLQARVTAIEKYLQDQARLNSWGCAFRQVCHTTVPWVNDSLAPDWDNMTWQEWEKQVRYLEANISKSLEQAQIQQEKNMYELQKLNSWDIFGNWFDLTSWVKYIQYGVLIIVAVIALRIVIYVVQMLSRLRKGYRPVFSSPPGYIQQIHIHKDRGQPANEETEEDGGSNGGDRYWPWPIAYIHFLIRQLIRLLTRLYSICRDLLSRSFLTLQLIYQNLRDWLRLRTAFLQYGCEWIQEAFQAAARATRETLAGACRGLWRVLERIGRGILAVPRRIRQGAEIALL

**Q.** With KD-247 (antibody) as the substance, how does the IC50, neutralizing activity (MTT assay) [1] read?
**A.** Its IC50, neutralizing activity (MTT assay) is 12 µg/mL.

**Q.** What about the IC50, neutralizing activity (MTT assay) [2] of the same substance?
**A.** The IC50, neutralizing activity (MTT assay) was > 50 µg/mL.

**Q.** And the IC50 in TZM-bl cells [3]?
**A.** The IC50 in TZM-bl cells was > 50 µg/mL.

**Q.** What about the IC50, neutralizing activity (MTT assay) [4] of the same substance?
**A.** Its IC50, neutralizing activity (MTT assay) is > 50 µg/mL.

**Q.** What about the IC50, neutralizing activity (MTT assay) [5] of the same substance?
**A.** The IC50, neutralizing activity (MTT assay) was > 50 µg/mL.

**Q.** And the IC50 in TZM-bl cells [6]?
**A.** The IC50 in TZM-bl cells was > 50 µg/mL.

**Q.** And the IC50 in TZM-bl cells [7]?
**A.** The IC50 in TZM-bl cells was > 50 µg/mL.

**Q.** What about the IC50 in TZM-bl cells [8] of the same substance?
**A.** The IC50 in TZM-bl cells was > 50 µg/mL.

**Q.** And the IC50 in TZM-bl cells [9]?
**A.** The IC50 in TZM-bl cells was 1.8 µg/mL.

**Q.** And the IC50 in TZM-bl cells [10]?
**A.** Its IC50 in TZM-bl cells is > 50 µg/mL.

**Q.** What about the IC50, neutralizing activity (MTT assay) [11] of the same substance?
**A.** The IC50, neutralizing activity (MTT assay) was > 50 µg/mL.

**Q.** What about the IC50 in TZM-bl cells [12] of the same substance?
**A.** Its IC50 in TZM-bl cells is > 50 µg/mL.

**Q.** What about the IC50 in TZM-bl cells [13] of the same substance?
**A.** The IC50 in TZM-bl cells was 17 µg/mL.

**Q.** And the IC50 in TZM-bl cells [14]?
**A.** Its IC50 in TZM-bl cells is > 50 µg/mL.

**Q.** What about the IC50, neutralizing activity (MTT assay) [15] of the same substance?
**A.** Its IC50, neutralizing activity (MTT assay) is 3.8 µg/mL.

**Q.** What about the IC50, neutralizing activity (MTT assay) [16] of the same substance?
**A.** The IC50, neutralizing activity (MTT assay) was > 50 µg/mL.

**Q.** And the IC50 in TZM-bl cells [17]?
**A.** Its IC50 in TZM-bl cells is 28 µg/mL.

**Q.** What about the IC50, neutralizing activity (MTT assay) [18] of the same substance?
**A.** The IC50, neutralizing activity (MTT assay) was 4.2 µg/mL.

**Q.** What about the IC50 in TZM-bl cells [19] of the same substance?
**A.** Its IC50 in TZM-bl cells is > 50 µg/mL.

**Q.** And the IC50, neutralizing activity (MTT assay) [20]?
**A.** The IC50, neutralizing activity (MTT assay) was 0.21 µg/mL.
